The assay deals with G protein-coupled receptor class C group 5 member D (GPRC5D) on tumor cells (MM.1S, RPMI8226, NCI-H929) (human) (UniProt Q9NZD1). The experiment in a line: cell-based or functional assay.
Sequence of UniProt Q9NZD1 (Q9NZD1 whole entry): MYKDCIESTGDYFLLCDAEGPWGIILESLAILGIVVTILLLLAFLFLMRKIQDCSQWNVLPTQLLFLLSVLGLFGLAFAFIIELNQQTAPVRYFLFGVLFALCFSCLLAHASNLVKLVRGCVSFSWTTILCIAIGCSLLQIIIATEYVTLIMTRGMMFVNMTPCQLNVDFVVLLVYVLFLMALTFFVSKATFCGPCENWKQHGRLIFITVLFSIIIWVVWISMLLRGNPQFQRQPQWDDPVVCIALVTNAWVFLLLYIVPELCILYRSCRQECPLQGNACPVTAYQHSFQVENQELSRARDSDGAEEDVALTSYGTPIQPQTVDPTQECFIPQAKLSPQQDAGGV

B1: CAR1, GPRC5D chimeric antigen receptor (CAR 1 (VL-VH)), expressed on human T cells (protein, part only; not given: CAR backbone and scFv linker, not shown: small tags and cut ends)
chain, part: SSELTQDPAASVALGQTVRITCQGDSVRTYYAGWYQQKPGQAPVLVIYGKNHRPSGIPDRFSGSTSGNTASLTITGVQAEDEADYYCNSRDSSANPVFGGGTKVTVLQVQLVQSGAEVKKPGASVKVSCKASGYTFTSYYMHWVRQAPGQGLEWMGWINPNSGGTNYAQKFQGRVTITADKSTSTAYMELNSLRAEDTAVYYCVRSKGRAARNYYYMDVWGKGTTVTVSS
Molecule B1 returned a % survival of MM.1S-ffluc cells, luciferase cytotoxicity assay, 24 h, E:T 1:1 of 20%; a % survival of MM.1S-ffluc cells, luciferase cytotoxicity assay, 24 h, E:T 1:2 of 60%; a % survival of MM.1S-ffluc cells, luciferase cytotoxicity assay, 24 h, E:T 1:4 of 88%; a % survival of RPMI8226-ffluc cells, luciferase cytotoxicity assay, 24 h, E:T 1:1 of 12%. This molecule came in with a % survival of RPMI8226-ffluc cells, luciferase cytotoxicity assay, 24 h, E:T 1:2 of 40%; a % survival of RPMI8226-ffluc cells, luciferase cytotoxicity assay, 24 h, E:T 1:4 of 70%; a % survival of RPMI8226-ffluc cells, luciferase cytotoxicity assay, 24 h, E:T 1:8 of 90%.

B2: CAR2, GPRC5D chimeric antigen receptor (CAR 2 (VL-VH)), expressed on human T cells (protein, part only; not given: CAR backbone and scFv linker, not shown: small tags and cut ends)
chain, part: SSELTQDPAASVALGQTVKITCQGDSLRRYFASWYQQKPGQAPTLVTYGKNRRPSGVPDRLSGSSSGDTASLTITGAQAEDEGDYYCNSRDRSGTVVFGGGTKLTVLEVQLVESGGGVVQPGRSLRLSCAASGFTFSSYAMSWVRQAPGKGLEWVSAISGSGGSTYYAGSVKGRFTISRDNSKNTLYLQMNSLRAEDTAVYYCARDLYGYRYYYYGMDVWGQGTMVTVSS
B2: the % survival of MM.1S-ffluc cells, luciferase cytotoxicity assay, 24 h, E:T 1:1 is < 5%; the % survival of MM.1S-ffluc cells, luciferase cytotoxicity assay, 24 h, E:T 1:2 stood at 15%; the % survival of MM.1S-ffluc cells, luciferase cytotoxicity assay, 24 h, E:T 1:4 came to 35%; the % survival of MM.1S-ffluc cells, luciferase cytotoxicity assay, 24 h, E:T 1:8 was determined as 85%. The % survival of RPMI8226-ffluc cells, luciferase cytotoxicity assay, 24 h, E:T 1:1 came out at 3%; the % survival of RPMI8226-ffluc cells, luciferase cytotoxicity assay, 24 h, E:T 1:2 stood at 10%; the % survival of RPMI8226-ffluc cells, luciferase cytotoxicity assay, 24 h, E:T 1:4 amounted to 25%; the % survival of RPMI8226-ffluc cells, luciferase cytotoxicity assay, 24 h, E:T 1:8 turned out to be 50%.

The record behind these values is patent US20250177447A1.
